From PMC12416549 (2024)

Target: T1, TNFR1 (Homo sapiens, UniProt P19438)
T1 chain: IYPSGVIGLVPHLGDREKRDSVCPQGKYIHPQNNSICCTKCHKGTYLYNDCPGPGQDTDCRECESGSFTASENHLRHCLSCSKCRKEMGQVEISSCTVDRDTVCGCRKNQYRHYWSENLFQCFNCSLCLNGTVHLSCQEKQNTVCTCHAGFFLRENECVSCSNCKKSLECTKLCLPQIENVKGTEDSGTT
Assay: yeast display SC50

Row | apparent Kd (screen) [nM] | Binder
1 | 0.593 | R92T (designed binder) MTLQELLREEALRRAEAEAFRYALELLAEKFPEQKEYLLDLAEEIESQIRSLSGVDVEDVRKFLDKEWAWVKELLAEHPAELAEVEAARAATLAELRAEVEAKVAA
2 | 0.539 | E25F (designed binder) MTLQELLREEALRRAEAEAFRYALFLLAEKFPEQKEYLLDLAEEIESQIRSLSGVDVEDVRKFLDKEWAWVKELLAEHPAELAEVEAARAARLAELRAEVEAKVAA
3 | 0.718 | E58T (designed binder) MTLQELLREEALRRAEAEAFRYALELLAEKFPEQKEYLLDLAEEIESQIRSLSGVDVTDVRKFLDKEWAWVKELLAEHPAELAEVEAARAARLAELRAEVEAKVAA
4 | 8.56 | L7C (designed binder) MTLQELCREEALRRAEAEAFRYALELLAEKFPEQKEYLLDLAEEIESQIRSLSGVDVEDVRKFLDKEWAWVKELLAEHPAELAEVEAARAARLAELRAEVEAKVAA
5 | 2.25 | R50P (designed binder) MTLQELLREEALRRAEAEAFRYALELLAEKFPEQKEYLLDLAEEIESQIPSLSGVDVEDVRKFLDKEWAWVKELLAEHPAELAEVEAARAARLAELRAEVEAKVAA
6 | 0.869 | A98E (designed binder) MTLQELLREEALRRAEAEAFRYALELLAEKFPEQKEYLLDLAEEIESQIRSLSGVDVEDVRKFLDKEWAWVKELLAEHPAELAEVEAARAARLAELREEVEAKVAA
7 | 0.79 | R89V (designed binder) MTLQELLREEALRRAEAEAFRYALELLAEKFPEQKEYLLDLAEEIESQIRSLSGVDVEDVRKFLDKEWAWVKELLAEHPAELAEVEAAVAARLAELRAEVEAKVAA
8 | 0.653 | A90G (designed binder) MTLQELLREEALRRAEAEAFRYALELLAEKFPEQKEYLLDLAEEIESQIRSLSGVDVEDVRKFLDKEWAWVKELLAEHPAELAEVEAARGARLAELRAEVEAKVAA
9 | 2.05 | S51V (designed binder) MTLQELLREEALRRAEAEAFRYALELLAEKFPEQKEYLLDLAEEIESQIRVLSGVDVEDVRKFLDKEWAWVKELLAEHPAELAEVEAARAARLAELRAEVEAKVAA
10 | 0.593 | A83F (designed binder) MTLQELLREEALRRAEAEAFRYALELLAEKFPEQKEYLLDLAEEIESQIRSLSGVDVEDVRKFLDKEWAWVKELLAEHPAELFEVEAARAARLAELRAEVEAKVAA
11 | 0.718 | V55T (designed binder) MTLQELLREEALRRAEAEAFRYALELLAEKFPEQKEYLLDLAEEIESQIRSLSGTDVEDVRKFLDKEWAWVKELLAEHPAELAEVEAARAARLAELRAEVEAKVAA

Further lines, the binder ahead of its results:

Row | Binder | apparent Kd (screen) [nM]
12 | K35V (designed binder) MTLQELLREEALRRAEAEAFRYALELLAEKFPEQVEYLLDLAEEIESQIRSLSGVDVEDVRKFLDKEWAWVKELLAEHPAELAEVEAARAARLAELRAEVEAKVAA | 1.54
13 | E16F (designed binder) MTLQELLREEALRRAFAEAFRYALELLAEKFPEQKEYLLDLAEEIESQIRSLSGVDVEDVRKFLDKEWAWVKELLAEHPAELAEVEAARAARLAELRAEVEAKVAA | 1.05
14 | R13I (designed binder) MTLQELLREEALIRAEAEAFRYALELLAEKFPEQKEYLLDLAEEIESQIRSLSGVDVEDVRKFLDKEWAWVKELLAEHPAELAEVEAARAARLAELRAEVEAKVAA | 0.368
15 | V85F (designed binder) MTLQELLREEALRRAEAEAFRYALELLAEKFPEQKEYLLDLAEEIESQIRSLSGVDVEDVRKFLDKEWAWVKELLAEHPAELAEFEAARAARLAELRAEVEAKVAA | 0.79
16 | E29H (designed binder) MTLQELLREEALRRAEAEAFRYALELLAHKFPEQKEYLLDLAEEIESQIRSLSGVDVEDVRKFLDKEWAWVKELLAEHPAELAEVEAARAARLAELRAEVEAKVAA | 0.446
17 | R50L (designed binder) MTLQELLREEALRRAEAEAFRYALELLAEKFPEQKEYLLDLAEEIESQILSLSGVDVEDVRKFLDKEWAWVKELLAEHPAELAEVEAARAARLAELRAEVEAKVAA | 0.869
18 | Q4F (designed binder) MTLFELLREEALRRAEAEAFRYALELLAEKFPEQKEYLLDLAEEIESQIRSLSGVDVEDVRKFLDKEWAWVKELLAEHPAELAEVEAARAARLAELRAEVEAKVAA | 0.49
19 | A69K (designed binder) MTLQELLREEALRRAEAEAFRYALELLAEKFPEQKEYLLDLAEEIESQIRSLSGVDVEDVRKFLDKEWKWVKELLAEHPAELAEVEAARAARLAELRAEVEAKVAA | 0.593
20 | R61A (designed binder) MTLQELLREEALRRAEAEAFRYALELLAEKFPEQKEYLLDLAEEIESQIRSLSGVDVEDVAKFLDKEWAWVKELLAEHPAELAEVEAARAARLAELRAEVEAKVAA | 0.869
21 | A69I (designed binder) MTLQELLREEALRRAEAEAFRYALELLAEKFPEQKEYLLDLAEEIESQIRSLSGVDVEDVRKFLDKEWIWVKELLAEHPAELAEVEAARAARLAELRAEVEAKVAA | 0.653
22 | K103G (designed binder) MTLQELLREEALRRAEAEAFRYALELLAEKFPEQKEYLLDLAEEIESQIRSLSGVDVEDVRKFLDKEWAWVKELLAEHPAELAEVEAARAARLAELRAEVEAGVAA | 0.49
23 | A88T (designed binder) MTLQELLREEALRRAEAEAFRYALELLAEKFPEQKEYLLDLAEEIESQIRSLSGVDVEDVRKFLDKEWAWVKELLAEHPAELAEVEATRAARLAELRAEVEAKVAA | 1.4
24 | E99R (designed binder) MTLQELLREEALRRAEAEAFRYALELLAEKFPEQKEYLLDLAEEIESQIRSLSGVDVEDVRKFLDKEWAWVKELLAEHPAELAEVEAARAARLAELRARVEAKVAA | 0.446
25 | A90I (designed binder) MTLQELLREEALRRAEAEAFRYALELLAEKFPEQKEYLLDLAEEIESQIRSLSGVDVEDVRKFLDKEWAWVKELLAEHPAELAEVEAARIARLAELRAEVEAKVAA | 0.49
26 | E73D (designed binder) MTLQELLREEALRRAEAEAFRYALELLAEKFPEQKEYLLDLAEEIESQIRSLSGVDVEDVRKFLDKEWAWVKDLLAEHPAELAEVEAARAARLAELRAEVEAKVAA | 0.539
27 | L6E (designed binder) MTLQEELREEALRRAEAEAFRYALELLAEKFPEQKEYLLDLAEEIESQIRSLSGVDVEDVRKFLDKEWAWVKELLAEHPAELAEVEAARAARLAELRAEVEAKVAA | 8.56
28 | L6H (designed binder) MTLQEHLREEALRRAEAEAFRYALELLAEKFPEQKEYLLDLAEEIESQIRSLSGVDVEDVRKFLDKEWAWVKELLAEHPAELAEVEAARAARLAELRAEVEAKVAA | 8.56
29 | R50I (designed binder) MTLQELLREEALRRAEAEAFRYALELLAEKFPEQKEYLLDLAEEIESQIISLSGVDVEDVRKFLDKEWAWVKELLAEHPAELAEVEAARAARLAELRAEVEAKVAA | 0.956
30 | L3R (designed binder) MTRQELLREEALRRAEAEAFRYALELLAEKFPEQKEYLLDLAEEIESQIRSLSGVDVEDVRKFLDKEWAWVKELLAEHPAELAEVEAARAARLAELRAEVEAKVAA | 2.48
31 | A80T (designed binder) MTLQELLREEALRRAEAEAFRYALELLAEKFPEQKEYLLDLAEEIESQIRSLSGVDVEDVRKFLDKEWAWVKELLAEHPTELAEVEAARAARLAELRAEVEAKVAA | 0.718
32 | K62D (designed binder) MTLQELLREEALRRAEAEAFRYALELLAEKFPEQKEYLLDLAEEIESQIRSLSGVDVEDVRDFLDKEWAWVKELLAEHPAELAEVEAARAARLAELRAEVEAKVAA | 0.593
33 | L75M (designed binder) MTLQELLREEALRRAEAEAFRYALELLAEKFPEQKEYLLDLAEEIESQIRSLSGVDVEDVRKFLDKEWAWVKELMAEHPAELAEVEAARAARLAELRAEVEAKVAA | 1.54
34 | A106I (designed binder) MTLQELLREEALRRAEAEAFRYALELLAEKFPEQKEYLLDLAEEIESQIRSLSGVDVEDVRKFLDKEWAWVKELLAEHPAELAEVEAARAARLAELRAEVEAKVAI | 0.593
35 | A23C (designed binder) MTLQELLREEALRRAEAEAFRYCLELLAEKFPEQKEYLLDLAEEIESQIRSLSGVDVEDVRKFLDKEWAWVKELLAEHPAELAEVEAARAARLAELRAEVEAKVAA | 0.446
